Fold decrease in binding of 125I-labeled ligand, growth inhibition of IM-9 cells and growth inhibition of RAMOS cells data for two substances are collected here from patent EP1881070A2.

The target in test [1] is human zalpha11 receptor (human) (UniProt Q9HBE5). Kind of test: 125I-ligand competition on Raji cells, relative to no competitor.
Test [2] has the same target. Kind of test: 125I-ligand competition on BaF3/zalpha11 cells, relative to no competitor.
For test [3] the target is unchanged. The experiment in a line: 125I-ligand competition on BaF3/zalpha11 cells, relative to non-specific competitor Interferon Gamma.
The target is the same in test [4]. The experiment in a line: 125I-ligand competition on Raji cells, relative to non-specific competitor Interferon Gamma.
Test [5] has the same target. The experiment in a line: cell-based or functional assay.

Chain of human zalpha11 receptor (human) (Q9HBE5 20-538 limits assumed): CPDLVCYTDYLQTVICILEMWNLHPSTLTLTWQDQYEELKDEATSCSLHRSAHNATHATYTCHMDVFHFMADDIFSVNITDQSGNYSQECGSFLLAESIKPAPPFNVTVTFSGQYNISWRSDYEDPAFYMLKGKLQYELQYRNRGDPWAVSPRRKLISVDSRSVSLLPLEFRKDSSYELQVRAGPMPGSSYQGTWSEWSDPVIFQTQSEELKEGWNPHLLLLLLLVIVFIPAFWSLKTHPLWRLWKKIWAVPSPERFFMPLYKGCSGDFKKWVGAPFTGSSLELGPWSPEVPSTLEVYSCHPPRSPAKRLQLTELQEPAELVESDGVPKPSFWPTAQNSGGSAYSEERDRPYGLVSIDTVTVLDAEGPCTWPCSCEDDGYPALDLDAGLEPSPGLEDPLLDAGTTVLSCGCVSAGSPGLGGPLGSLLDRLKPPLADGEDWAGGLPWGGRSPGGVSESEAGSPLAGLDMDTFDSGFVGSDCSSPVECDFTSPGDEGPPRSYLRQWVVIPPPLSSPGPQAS
Chain of human zalpha11 Ligand-saporin immunotoxin conjugate (Q9HBE4 32-162): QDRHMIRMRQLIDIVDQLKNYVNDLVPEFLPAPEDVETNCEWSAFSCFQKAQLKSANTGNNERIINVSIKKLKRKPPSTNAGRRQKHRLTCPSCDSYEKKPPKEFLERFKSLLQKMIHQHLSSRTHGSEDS

With “purified CHO recombinant human zalpha11 Ligand (huzalpha11L-CHO) (from UniProt Q9HBE4 32-162)”, the fold decrease in binding of 125I-labeled ligand at 250 fold molar excess was 3.7 fold in test [1], 3.06 fold in test [2], 2 fold in test [3] and 3 fold in test [4].

In test [5], “human zalpha11 Ligand-saporin immunotoxin conjugate” returned a growth inhibition of IM-9 cells at the maximal conjugate concentration (250 ng/ml), Alamar Blue of 79% and a growth inhibition of RAMOS cells at the maximal conjugate concentration (250 ng/ml), Alamar Blue of 65%.
